{"source": "paper PMC9482650", "about": "“Quantitative fragmentomics allow affinity mapping of interactomes” (Nature Communications, 2022)", "binders": {"B1": {"name": "MERS-E, K9N5R3 (peptide)", "chain": "DSKPPLPPDEWV"}, "B2": {"name": "ASIC3, Q9UHC3 (peptide)", "chain": "HRTCYLVTQL"}, "B3": {"name": "EPHA7, Q15375 (peptide)", "chain": "LHLHGTGIQV"}}, "test_in_all_cases": "holdup assay", "set-up_in_all_cases": "key: below the threshold = too weak to quantify, mostly under pKd 3.1 to 4", "key": {"[1]": {"target": "IL16_4, Q14005", "sequence (Q14005 1229-1329)": "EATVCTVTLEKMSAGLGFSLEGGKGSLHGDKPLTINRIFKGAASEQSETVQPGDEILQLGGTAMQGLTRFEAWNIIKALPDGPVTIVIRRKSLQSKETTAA"}, "[2]": {"target": "T1, APBA3_1, O96018", "T1 sequence (O96018 389-490, limits assumed, looked up)": "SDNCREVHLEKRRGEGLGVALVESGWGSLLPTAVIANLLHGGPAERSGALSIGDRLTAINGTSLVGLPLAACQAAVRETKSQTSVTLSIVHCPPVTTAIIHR"}, "[3]": {"target": "T2, CARD11, Q9BXL7", "T2 sequence (Q9BXL7 662-765, limits assumed, looked up)": "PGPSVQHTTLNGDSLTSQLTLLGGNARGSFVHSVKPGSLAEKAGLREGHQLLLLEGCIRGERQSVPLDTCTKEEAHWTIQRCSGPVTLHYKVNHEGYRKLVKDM"}, "[4]": {"target": "T3, FRMPD1, Q5SYB0", "T3 sequence (Q5SYB0 52-145, limits assumed, looked up)": "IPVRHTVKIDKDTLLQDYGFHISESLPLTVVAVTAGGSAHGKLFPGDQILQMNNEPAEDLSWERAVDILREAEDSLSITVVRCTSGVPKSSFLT"}, "[5]": {"target": "T4, GRIP1_5, Q9Y3R0", "T4 sequence (Q9Y3R0 568-668, limits assumed, looked up)": "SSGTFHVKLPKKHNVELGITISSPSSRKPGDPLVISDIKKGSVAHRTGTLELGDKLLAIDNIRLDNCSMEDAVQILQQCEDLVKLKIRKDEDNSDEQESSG"}, "[6]": {"target": "T5, MPDZ_5, O75970", "T5 sequence (O75970 695-796, limits assumed, looked up)": "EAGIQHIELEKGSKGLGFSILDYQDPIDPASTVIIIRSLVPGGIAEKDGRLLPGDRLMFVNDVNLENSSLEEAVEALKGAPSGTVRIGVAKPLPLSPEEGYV"}, "[7]": {"target": "NOS1, P29475", "sequence (P29475 9-101)": "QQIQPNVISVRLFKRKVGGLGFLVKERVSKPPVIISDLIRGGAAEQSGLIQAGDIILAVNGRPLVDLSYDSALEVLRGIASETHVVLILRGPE"}, "[8]": {"target": "LDB3, O75112", "sequence (O75112 1-94)": "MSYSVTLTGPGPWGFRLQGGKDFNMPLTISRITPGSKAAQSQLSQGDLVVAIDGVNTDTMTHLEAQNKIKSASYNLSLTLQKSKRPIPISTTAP"}, "[9]": {"target": "T6, LIN7A, O14910", "T6 sequence (O14910 103-200, limits assumed, looked up)": "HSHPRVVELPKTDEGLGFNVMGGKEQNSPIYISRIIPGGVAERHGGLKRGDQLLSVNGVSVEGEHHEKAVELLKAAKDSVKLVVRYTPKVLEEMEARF"}, "[10]": {"target": "PDLIM1, O00151", "sequence (O00151 1-87)": "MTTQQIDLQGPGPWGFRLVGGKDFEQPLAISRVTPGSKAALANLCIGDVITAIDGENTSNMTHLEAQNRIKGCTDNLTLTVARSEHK"}, "[11]": {"target": "GRID2IP_1, A4D2P6", "sequence (A4D2P6 1-87)": "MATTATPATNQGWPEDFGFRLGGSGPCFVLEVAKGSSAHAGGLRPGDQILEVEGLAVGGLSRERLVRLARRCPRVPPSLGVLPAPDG"}, "[12]": {"target": "T7, PDZRN3_1, Q9UPQ7", "T7 sequence (Q9UPQ7 244-349, limits assumed, looked up)": "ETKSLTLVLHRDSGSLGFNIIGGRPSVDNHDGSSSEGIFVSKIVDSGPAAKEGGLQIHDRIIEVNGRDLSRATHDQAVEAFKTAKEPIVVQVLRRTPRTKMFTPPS"}, "[13]": {"target": "MAGI2_6, Q86UL8", "sequence (Q86UL8 1141-1229)": "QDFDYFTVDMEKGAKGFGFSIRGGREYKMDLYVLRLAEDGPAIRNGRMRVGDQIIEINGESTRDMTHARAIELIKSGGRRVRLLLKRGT"}, "[14]": {"target": "T8, PARD3B_1, Q8TEW8", "T8 sequence (Q8TEW8 196-299, limits assumed, looked up)": "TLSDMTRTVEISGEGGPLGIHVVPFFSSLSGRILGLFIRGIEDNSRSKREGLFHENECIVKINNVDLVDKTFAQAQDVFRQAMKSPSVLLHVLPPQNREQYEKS"}, "[15]": {"target": "T9, GRIP1_7, Q9Y3R0", "T9 sequence (Q9Y3R0 999-1096, limits assumed, looked up)": "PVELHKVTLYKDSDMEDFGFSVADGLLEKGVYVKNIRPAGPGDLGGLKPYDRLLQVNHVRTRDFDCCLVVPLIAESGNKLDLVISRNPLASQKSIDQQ"}, "[16]": {"target": "FRMPD4, Q14CM0", "sequence (Q14CM0 67-160)": "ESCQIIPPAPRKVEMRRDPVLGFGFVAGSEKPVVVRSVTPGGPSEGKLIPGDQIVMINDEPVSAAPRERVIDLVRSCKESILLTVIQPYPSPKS"}, "[17]": {"target": "MAGI2_3, Q86UL8", "sequence (Q86UL8 600-682)": "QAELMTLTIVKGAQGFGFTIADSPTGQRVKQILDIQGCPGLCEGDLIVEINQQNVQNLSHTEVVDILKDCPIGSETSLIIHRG"}, "[18]": {"target": "PARD3_3, Q8TEW0", "sequence (Q8TEW0 582-685)": "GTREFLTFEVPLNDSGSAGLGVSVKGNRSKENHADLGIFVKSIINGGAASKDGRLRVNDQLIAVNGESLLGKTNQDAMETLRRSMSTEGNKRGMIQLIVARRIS"}, "[19]": {"target": "T10, APBA2_1, Q99767", "T10 sequence (Q99767 563-664, limits assumed, looked up)": "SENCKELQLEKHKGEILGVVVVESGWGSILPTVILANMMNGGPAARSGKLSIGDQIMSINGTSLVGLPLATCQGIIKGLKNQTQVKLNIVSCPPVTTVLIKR"}, "[20]": {"target": "DLG4_1, P78352", "sequence (P78352 62-152)": "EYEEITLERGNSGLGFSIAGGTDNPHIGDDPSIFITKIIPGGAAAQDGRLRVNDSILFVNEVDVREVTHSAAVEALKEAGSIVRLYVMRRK"}, "[21]": {"target": "T11, MPDZ_12, O75970", "T11 sequence (O75970 1857-1958, limits assumed, looked up)": "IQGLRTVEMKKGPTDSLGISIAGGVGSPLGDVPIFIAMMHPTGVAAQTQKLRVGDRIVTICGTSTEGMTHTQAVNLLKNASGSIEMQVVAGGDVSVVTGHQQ"}, "[22]": {"target": "T12, DLG3_1, Q92796", "T12 sequence (Q92796 125-227, limits assumed, looked up)": "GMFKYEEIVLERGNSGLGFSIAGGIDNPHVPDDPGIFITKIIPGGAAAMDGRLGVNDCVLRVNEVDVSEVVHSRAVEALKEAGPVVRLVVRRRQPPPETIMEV"}, "[23]": {"target": "T13, NHERF3_1, Q5T2W1", "T13 sequence (Q5T2W1 4-100, limits assumed, looked up)": "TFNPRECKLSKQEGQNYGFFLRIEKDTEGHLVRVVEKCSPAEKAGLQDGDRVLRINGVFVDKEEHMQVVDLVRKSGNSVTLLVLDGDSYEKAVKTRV"}, "[24]": {"target": "Inadl_3, Q8NI35", "sequence (Q8NI35 359-469)": "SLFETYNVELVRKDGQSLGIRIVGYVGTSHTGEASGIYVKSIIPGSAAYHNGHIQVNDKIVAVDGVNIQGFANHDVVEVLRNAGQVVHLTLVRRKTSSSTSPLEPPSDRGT"}, "[25]": {"conditions": "plain residues with an end cap or a label only (N-terminal biotin on a linker: none)"}, "[26]": {"conditions": "plain residues with an end cap or a label only (N-terminal biotin on a linker: ttds)"}, "[27]": {"conditions": "plain residues with an end cap or a label only (N-terminal biotin on a linker: ado-ado)"}}}
{"binder": "B1", "values": [{"measurement": "pKd", "setting": "[1]; [25]", "value": "below the threshold"}, {"measurement": "pKd", "setting": "[2]; [25]", "value": 3.65}, {"measurement": "pKd", "setting": "[3]; [25]", "value": "below the threshold"}, {"measurement": "pKd", "setting": "[4]; [25]", "value": "below the threshold"}, {"measurement": "pKd", "setting": "[5]; [25]", "value": 3.68}, {"measurement": "pKd", "setting": "[6]; [25]", "value": "below the threshold"}, {"measurement": "pKd", "setting": "[7]; [25]", "value": 3.99}, {"measurement": "pKd", "setting": "[8]; [25]", "value": "below the threshold"}, {"measurement": "pKd", "setting": "[9]; [25]", "value": "below the threshold"}, {"measurement": "pKd", "setting": "[10]; [25]", "value": "below the threshold"}, {"measurement": "pKd", "setting": "[11]; [25]", "value": 3.57}, {"measurement": "pKd", "setting": "[12]; [25]", "value": "below the threshold"}, {"measurement": "pKd", "setting": "[13]; [25]", "value": 4.75}, {"measurement": "pKd", "setting": "[14]; [25]", "value": 3.5}, {"measurement": "pKd", "setting": "[15]; [25]", "value": 3.88}, {"measurement": "pKd", "setting": "[16]; [25]", "value": 4.07}, {"measurement": "pKd", "setting": "[17]; [25]", "value": "below the threshold"}, {"measurement": "pKd", "setting": "[18]; [25]", "value": 4.07}, {"measurement": "pKd", "setting": "[19]; [25]", "value": "below the threshold"}, {"measurement": "pKd", "setting": "[20]; [25]", "value": 3.62}, {"measurement": "pKd", "setting": "[21]; [25]", "value": "below the threshold"}, {"measurement": "pKd", "setting": "[22]; [25]", "value": "below the threshold"}, {"measurement": "pKd", "setting": "[23]; [25]", "value": "below the threshold"}, {"measurement": "pKd", "setting": "[24]; [25]", "value": 3.55}]}
{"binder": "B2", "values": [{"measurement": "pKd", "setting": "[1]; [26]", "value": 3.21}, {"measurement": "pKd", "setting": "[2]; [26]", "value": "below the threshold"}, {"measurement": "pKd", "setting": "[3]; [26]", "value": "below the threshold"}, {"measurement": "pKd", "setting": "[4]; [26]", "value": "below the threshold"}, {"measurement": "pKd", "setting": "[5]; [26]", "value": "below the threshold"}, {"measurement": "pKd", "setting": "[6]; [26]", "value": 3.4}, {"measurement": "pKd", "setting": "[7]; [26]", "value": 3.75}, {"measurement": "pKd", "setting": "[8]; [26]", "value": "below the threshold"}, {"measurement": "pKd", "setting": "[9]; [26]", "value": "below the threshold"}, {"measurement": "pKd", "setting": "[10]; [26]", "value": 3.46}, {"measurement": "pKd", "setting": "[11]; [26]", "value": "below the threshold"}, {"measurement": "pKd", "setting": "[12]; [26]", "value": 4.08}, {"measurement": "pKd", "setting": "[13]; [26]", "value": 4.11}, {"measurement": "pKd", "setting": "[14]; [26]", "value": 3.95}, {"measurement": "pKd", "setting": "[15]; [26]", "value": "below the threshold"}, {"measurement": "pKd", "setting": "[16]; [26]", "value": 3.77}, {"measurement": "pKd", "setting": "[17]; [26]", "value": 3.47}, {"measurement": "pKd", "setting": "[18]; [26]", "value": 3.76}, {"measurement": "pKd", "setting": "[19]; [26]", "value": "below the threshold"}, {"measurement": "pKd", "setting": "[20]; [26]", "value": 3.78}, {"measurement": "pKd", "setting": "[21]; [26]", "value": 3.34}, {"measurement": "pKd", "setting": "[22]; [26]", "value": 3.34}, {"measurement": "pKd", "setting": "[23]; [26]", "value": 4.8}, {"measurement": "pKd", "setting": "[24]; [26]", "value": 3.33}]}
{"binder": "B3", "values": [{"measurement": "pKd", "setting": "[1]; [27]", "value": "below the threshold"}, {"measurement": "pKd", "setting": "[2]; [27]", "value": "below the threshold"}, {"measurement": "pKd", "setting": "[3]; [27]", "value": "below the threshold"}, {"measurement": "pKd", "setting": "[4]; [27]", "value": "below the threshold"}, {"measurement": "pKd", "setting": "[5]; [27]", "value": "below the threshold"}, {"measurement": "pKd", "setting": "[6]; [27]", "value": 4.1}, {"measurement": "pKd", "setting": "[7]; [27]", "value": 4.24}, {"measurement": "pKd", "setting": "[8]; [27]", "value": "below the threshold"}, {"measurement": "pKd", "setting": "[9]; [27]", "value": "below the threshold"}, {"measurement": "pKd", "setting": "[10]; [27]", "value": "below the threshold"}, {"measurement": "pKd", "setting": "[11]; [27]", "value": "below the threshold"}, {"measurement": "pKd", "setting": "[12]; [27]", "value": "below the threshold"}, {"measurement": "pKd", "setting": "[13]; [27]", "value": "below the threshold"}, {"measurement": "pKd", "setting": "[14]; [27]", "value": 3.72}, {"measurement": "pKd", "setting": "[15]; [27]", "value": 3.49}, {"measurement": "pKd", "setting": "[16]; [27]", "value": 3.97}, {"measurement": "pKd", "setting": "[17]; [27]", "value": 3.63}, {"measurement": "pKd", "setting": "[18]; [27]", "value": 3.64}, {"measurement": "pKd", "setting": "[19]; [27]", "value": "below the threshold"}, {"measurement": "pKd", "setting": "[20]; [27]", "value": 3.73}, {"measurement": "pKd", "setting": "[21]; [27]", "value": 3.55}, {"measurement": "pKd", "setting": "[22]; [27]", "value": "below the threshold"}, {"measurement": "pKd", "setting": "[23]; [27]", "value": "below the threshold"}, {"measurement": "pKd", "setting": "[24]; [27]", "value": 3.55}]}
